The source of these data is patent publication EP4624492A1 (Shanghai Hongcheng Biopharmaceutical Co., Ltd., dated 2025).

Read-outs that look alike come from different tables or passages of the source.

Assay [1] has as its target T1, human CCR8 (human, UniProt P51685 1-355). In words: cell-based or functional assay.
The target of assay [2] is T1, human CCR8. Kind of assay: cell-based or functional assay. The source holds these as a separate data set.
For assay [3], the target named is T1, human CCR8. In words: flow cytometry on 293F-hCCR8 cells.
Assay [4] has as its target T1, human CCR8. In words: flow cytometry on 293F-hCCR8 cells. The source holds these as a separate data set.
The target of assay [5] is T2, cynomolgus CCR8 (cynomolgus monkey).
T2 construct: whole, on cells; the constructs of the cell lines are not tied to it word for word; also called cynoCCR8
Kind of assay: flow cytometry on 293T-cynoCCR8 cells.

The target in assay [6] is T1, human CCR8. In words: flow cytometry, competition with 10 nM AF647-human CCL1 on 293F-hCCR8 cells.
Assay [7] addresses T1, human CCR8. Described as above. This is another data set of the same source.
For assay [8], the target named is T1, human CCR8. Kind of assay: cell-based or functional assay. The source holds these as a separate data set.
Assay [9] deals with T1, human CCR8. In words: cell-based or functional assay. The source holds these as a separate data set.
The target in assay [10] is T1, human CCR8. Kind of assay: cell-based or functional assay. The source holds these as a separate data set.
Assay [11] deals with T1, human CCR8. In words: cell-based or functional assay. The source holds these as a separate data set.
Assay [12] deals with T1, human CCR8. Kind of assay: flow cytometry on CHOK1-hCCR8 cells.
Assay [13] addresses T1, human CCR8. Kind of assay: flow cytometry on HuT78 cells (endogenous CCR8).
The target in assay [14] is T1, human CCR8. In words: cell-based or functional assay. This is another data set of the same source.
Assay [15] addresses T2, cynomolgus CCR8. In words: flow cytometry on 293T-cynoCCR8 cells. The source holds these as a separate data set.
Assay [16] addresses T1, human CCR8. Kind of assay: cell-based or functional assay. This is another data set of the same source.

T1 sequence (P51685 whole entry): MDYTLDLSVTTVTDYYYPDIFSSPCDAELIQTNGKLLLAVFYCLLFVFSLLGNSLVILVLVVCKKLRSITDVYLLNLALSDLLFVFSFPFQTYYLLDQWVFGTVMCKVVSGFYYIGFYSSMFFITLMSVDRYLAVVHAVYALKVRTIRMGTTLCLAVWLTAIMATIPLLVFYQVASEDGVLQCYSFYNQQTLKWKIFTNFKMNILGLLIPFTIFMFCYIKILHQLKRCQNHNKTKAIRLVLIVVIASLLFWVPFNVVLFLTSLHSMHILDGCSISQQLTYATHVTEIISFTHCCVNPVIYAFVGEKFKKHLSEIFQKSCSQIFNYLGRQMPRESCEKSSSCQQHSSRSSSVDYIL

B1: 563E10E12_hIgG1 (antibody)
heavy: not shown
light: DVVMTQAAFSNPVTLGTSTSISCRSSKSLLHSNGITYLFWYLQKPGQSPQLLIYQMSNLASGVPDRFSGSGSGTDFTLRISRVEAEDVGVYYCAQSLELPLTFGGGTKLEIKRTVAAPSVFIFPPSDEQLKSGTASVVCLLNNFYPREAKVQWKVDNALQSGNSQESVTEQDSKDSTYSLSSTLTLSKADYEKHKVYACEVTHQGLSSPVTKSFNRGEC
notes: also called hIgG1-subclass chimeric antibody 563E10E12
As for B1, in the assay with human CCR8 [1], the “IC50 of blockade of CCL1-induced β-arrestin recruitment” value was 1720 ng/mL. In addition, the “EC50 of activation of Jurkat-human FcγRIIIa(158V)-NFAT with 293F-hCCR8 target cells” value (from here on “EC50 … with 293F-hCCR8 target cells”) with human CCR8 [2] is 21.6 ng/mL. Further, the figures for the concentration for a half-maximal effect (EC50) with human CCR8 [3], with human CCR8 [4] and with cynomolgus CCR8 [5] were 0.0273 µg/mL, 0.073 µg/mL and 0.0473 µg/mL, respectively. Further, the IC50 with human CCR8 [6] amounted to 0.0295 µg/mL; with human CCR8 [7], 0.0513 µg/mL.

B2: 563E10E12_hzH1L0_hIgG1 (antibody)
heavy: not shown
light: DIVMTQSPLSLPVTPGEPASISCRSSKSLLHSNGITYLFWYLQKPGQSPQLLIYQMSNLASGVPDRFSGSGSGTDFTLKISRVEAEDVGVYYCAQSLELPLTFGGGTKVEIKRTVAAPSVFIFPPSDEQLKSGTASVVCLLNNFYPREAKVQWKVDNALQSGNSQESVTEQDSKDSTYSLSSTLTLSKADYEKHKVYACEVTHQGLSSPVTKSFNRGEC
notes: Humanized, hIgG1/K
B2: the “IC50 of blockade of CCL1-induced β-arrestin recruitment” value with human CCR8 [1] stood at 1460 ng/mL. For the same molecule, the results for the “EC50 … with 293F-hCCR8 target cells” value with human CCR8 [2] and with human CCR8 [9] were 27.9 ng/mL and 13.5 ng/mL, respectively. Moreover, in the assay with human CCR8 [8], the “EC50 of activation of Jurkat-human FcγRIIIa(158V)-NFAT with CHOK1-hCCR8 target cells” value came to 29.9 ng/mL. In addition, in the assay with human CCR8 [10], the “EC50 of activation of Jurkat-human FcγRIIIa(158V)-NFAT with HuT78 target cells” value (“EC50 of activation … with HuT78 target cells” below) was 40.9 ng/mL. Further, the “EC50 of ADCC effect (lysis%) by human PBMCs on CHOK1-hCCR8 cells” value (“EC50 of ADCC effect (lysis%)” for short) in the assay with human CCR8 [11] came out at 4.71 ng/mL. For the same molecule, the EC50 in the assay with human CCR8 [4] is 0.103 µg/mL; with human CCR8 [12], 0.0376 µg/mL; in the assay with cynomolgus CCR8 [5], 0.0227 µg/mL; in the assay with human CCR8 [13], 0.054 µg/mL. Also, the IC50 with human CCR8 [7] was 0.0852 µg/mL.

B3: 563E10E12_hzH1L0_DE (antibody, human IgG1, kappa)
heavy: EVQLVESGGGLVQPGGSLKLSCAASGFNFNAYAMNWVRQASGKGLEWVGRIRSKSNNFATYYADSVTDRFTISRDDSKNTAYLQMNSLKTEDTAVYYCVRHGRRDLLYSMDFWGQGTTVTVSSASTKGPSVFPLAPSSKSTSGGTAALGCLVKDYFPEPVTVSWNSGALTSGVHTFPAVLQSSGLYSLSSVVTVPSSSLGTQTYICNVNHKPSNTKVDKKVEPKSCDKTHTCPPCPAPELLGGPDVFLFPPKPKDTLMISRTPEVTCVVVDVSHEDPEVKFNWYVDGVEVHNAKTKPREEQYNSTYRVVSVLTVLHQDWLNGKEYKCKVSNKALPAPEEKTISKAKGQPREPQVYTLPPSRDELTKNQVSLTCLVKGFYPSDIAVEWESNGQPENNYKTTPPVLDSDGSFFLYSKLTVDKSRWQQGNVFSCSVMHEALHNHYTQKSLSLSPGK
light: DIVMTQSPLSLPVTPGEPASISCRSSKSLLHSNGITYLFWYLQKPGQSPQLLIYQMSNLASGVPDRFSGSGSGTDFTLKISRVEAEDVGVYYCAQSLELPLTFGGGTKVEIKRTVAAPSVFIFPPSDEQLKSGTASVVCLLNNFYPREAKVQWKVDNALQSGNSQESVTEQDSKDSTYSLSSTLTLSKADYEKHKVYACEVTHQGLSSPVTKSFNRGEC
In the case of B3, the “EC50 … with 293F-hCCR8 target cells” value in the assay with human CCR8 [9] is 0.9 ng/mL. Moreover, the “EC50 of activation … with HuT78 target cells” value with human CCR8 [10] amounted to 8.3 ng/mL. For the same molecule, the “EC50 of ADCC effect (lysis%)” value in the assay with human CCR8 [11] came to 0.6 ng/mL.

B4: 563E10E12_hzH1L0_AF (antibody, human IgG1, kappa)
heavy: not shown
light: DIVMTQSPLSLPVTPGEPASISCRSSKSLLHSNGITYLFWYLQKPGQSPQLLIYQMSNLASGVPDRFSGSGSGTDFTLKISRVEAEDVGVYYCAQSLELPLTFGGGTKVEIKRTVAAPSVFIFPPSDEQLKSGTASVVCLLNNFYPREAKVQWKVDNALQSGNSQESVTEQDSKDSTYSLSSTLTLSKADYEKHKVYACEVTHQGLSSPVTKSFNRGEC
modifications: afucosylated (expressed in ExpiCHO cells with 2F-peracetyl-fucose)
On to B4, for which, in the assay with human CCR8 [9], the “EC50 … with 293F-hCCR8 target cells” value is 0.9 ng/mL. Further, the “EC50 of activation … with HuT78 target cells” value with human CCR8 [10] turned out to be 11 ng/mL. In addition, the “EC50 of ADCC effect (lysis%)” value with human CCR8 [11] amounted to 0.31 ng/mL.

B5: 563E10E12_hzH1L0_DLE (antibody, human IgG1, kappa)
heavy: EVQLVESGGGLVQPGGSLKLSCAASGFNFNAYAMNWVRQASGKGLEWVGRIRSKSNNFATYYADSVTDRFTISRDDSKNTAYLQMNSLKTEDTAVYYCVRHGRRDLLYSMDFWGQGTTVTVSSASTKGPSVFPLAPSSKSTSGGTAALGCLVKDYFPEPVTVSWNSGALTSGVHTFPAVLQSSGLYSLSSVVTVPSSSLGTQTYICNVNHKPSNTKVDKKVEPKSCDKTHTCPPCPAPELLGGPDVFLFPPKPKDTLMISRTPEVTCVVVDVSHEDPEVKFNWYVDGVEVHNAKTKPREEQYNSTYRVVSVLTVLHQDWLNGKEYKCKVSNKALPLPEEKTISKAKGQPREPQVYTLPPSRDELTKNQVSLTCLVKGFYPSDIAVEWESNGQPENNYKTTPPVLDSDGSFFLYSKLTVDKSRWQQGNVFSCSVMHEALHNHYTQKSLSLSPGK
light: DIVMTQSPLSLPVTPGEPASISCRSSKSLLHSNGITYLFWYLQKPGQSPQLLIYQMSNLASGVPDRFSGSGSGTDFTLKISRVEAEDVGVYYCAQSLELPLTFGGGTKVEIKRTVAAPSVFIFPPSDEQLKSGTASVVCLLNNFYPREAKVQWKVDNALQSGNSQESVTEQDSKDSTYSLSSTLTLSKADYEKHKVYACEVTHQGLSSPVTKSFNRGEC
For B5, the “EC50 … with 293F-hCCR8 target cells” value with human CCR8 [9] is 0.7 ng/mL. For the same molecule, the “EC50 of activation … with HuT78 target cells” value in the assay with human CCR8 [10] came to 5.7 ng/mL. Moreover, the “EC50 of ADCC effect (lysis%)” value with human CCR8 [11] was 0.39 ng/mL.

B6: 563E10E12_hzH1L1_hIgG1 (antibody)
heavy: not shown
light: DVVMTQSPLSLPVTPGEPASISCRSSKSLLHSNGITYLFWYLQKPGQSPQLLIYQMSNLASGVPDRFSGSGSGTDFTLKISRVEAEDVGVYYCAQSLELPLTFGGGTKVEIKRTVAAPSVFIFPPSDEQLKSGTASVVCLLNNFYPREAKVQWKVDNALQSGNSQESVTEQDSKDSTYSLSSTLTLSKADYEKHKVYACEVTHQGLSSPVTKSFNRGEC
notes: Humanized, hIgG1/K
Turning to B6, in the assay with human CCR8 [1], the “IC50 of blockade of CCL1-induced β-arrestin recruitment” value turned out to be 1620 ng/mL. Further, the “EC50 … with 293F-hCCR8 target cells” value is 28.3 ng/mL in the assay with human CCR8 [2] and 8.9 ng/mL with human CCR8 [9]. The concentration giving a half-maximal response (EC50) in the assay with human CCR8 [4] was 0.124 µg/mL; with human CCR8 [12], 0.0423 µg/mL; with cynomolgus CCR8 [5] it was 0.0264 µg/mL; with human CCR8 [13], 0.0545 µg/mL. For the same molecule, in the assay with human CCR8 [7], the IC50 is 0.0835 µg/mL.

B7: 559E1B10_mIgG2a (antibody)
heavy: KVQLQQSGPVLVKPGASVKMSCKASGYTFTDYYVNWMKQNYGKSPEWIGVINPHNGDTRYNQKFKGKATLTVDKSSSTANMELTSLTSGDSAVYYCASWLRRGYYFDSWGQGTTLTVSSAKTTAPSVYPLAPVCGDTTGSSVTLGCLVKGYFPEPVTLTWNSGSLSSGVHTFPAVLQSDLYTLSSSVTVTSSTWPSQSITCNVAHPASSTKVDKKIEPRGPTIKPCPPCKCPAPNLLGGPSVFIFPPKIKDVLMISLSPIVTCVVVDVSEDDPDVQISWFVNNVEVHTAQTQTHREDYNSTLRVVSALPIQHQDWMSGKEFKCKVNNKDLPAPIERTISKPKGSVRAPQVYVLPPPEEEMTKKQVTLTCMVTDFMPEDIYVEWTNNGKTELNYKNTEPVLDSDGSYFMYSKLRVEKKNWVERNSYSCSVVHEGLHNHHTTKSFSRTPGK
light: DIVMTQSPATLSVTPGDRVSLSCRASQSISDYLHWYQQKSHESPRLLLKYVSQSISGIPSRFSGSGSGSDFTLTINSVEPEDVGVYYCQNGHSFPLTFGAGTKLELKRADAAPTVSIFPPSSEQLTSGGASVVCFLNNFYPKDINVKWKIDGSERQNGVLNSWTDQDSKDSTYSMSSTLTLTKDEYERHNSYTCEATHKTSTSPIVKSFNRNEC
notes: also called mIgG2a-subclass chimeric antibody 559E1B10
Turning to B7, in the assay with human CCR8 [14], the “IC50 of blockade of CCL1-induced β-arrestin recruitment (Tango-H_CCR8-CHO-K1 cells)” value was found to be 1760 ng/mL. Also, the figures for the EC50 in the assay with human CCR8 [3] and with cynomolgus CCR8 [15] were 0.1 µg/mL and 0.0819 µg/mL, respectively. In the assay with human CCR8 [6], the IC50 was 0.0649 µg/mL.

B8: 559E1B10_hzH1L1_hIgG1 (antibody)
heavy: not shown
light: EIVLTQSPATLSLSPGERATLSCRASQSISDYLHWYQQKPGQAPRLLLKYVSQSISGIPARFSGSGSGTDFTLTISSLEPEDFAVYYCQNGHSFPLTFGGGTKVEIKRTVAAPSVFIFPPSDEQLKSGTASVVCLLNNFYPREAKVQWKVDNALQSGNSQESVTEQDSKDSTYSLSSTLTLSKADYEKHKVYACEVTHQGLSSPVTKSFNRGEC
notes: Humanized, hIgG1/K
Regarding B8, the “IC50 of blockade of CCL1-induced β-arrestin recruitment” value with human CCR8 [1] turned out to be 28100 ng/mL. The “EC50 … with 293F-hCCR8 target cells” value with human CCR8 [16] was found to be 42.1 ng/mL; with human CCR8 [9] it was 13.3 ng/mL. For the same molecule, in the assay with human CCR8 [8], the “EC50 of activation of Jurkat-human FcγRIIIa(158V)-NFAT with CHOK1-hCCR8 target cells” value came out at 26.5 ng/mL. Also, the EC50 came out at 0.114 µg/mL with human CCR8 [4], 0.036 µg/mL with human CCR8 [12], 0.0876 µg/mL with cynomolgus CCR8 [5] and 15.2 µg/mL in the assay with human CCR8 [13]. Also, the IC50 in the assay with human CCR8 [7] was 0.15 µg/mL.

B9: 27B9-1G3_hIgG1 (antibody, V domains shown)
VH: EIQLQQSGPELEKPGASVKISCKASGYSFTGYNMNWVKKSNGKSLEWIGNIDPYYGGTNYNQKFKGKATLTVDKSSSTAYMQLKSLTSEDSAVYYCARETWFITTGVIKKGFYFDYWGQGTTLTVSS
VL: EIVLTQSPTTMAASPGEKITLACSASSIISSNYLHWYQQKPGFSPKLLIYRTSSLASGVPARFSGSGSGTSYSLTIGTMEAEDVATYYCQQGSSIPRTFGGGTKLEIKR
notes: also called hIgG1-subclass chimeric antibody 27B9-1G3
For B9, the “IC50 of blockade of CCL1-induced β-arrestin recruitment (Tango-H_CCR8-CHO-K1 cells)” value with human CCR8 [14] turned out to be 260 ng/mL. Further, the EC50 with human CCR8 [3] was found to be 0.273 µg/mL; with human CCR8 [4], 0.139 µg/mL; in the assay with cynomolgus CCR8 [15], 0.305 µg/mL. Moreover, the results for the IC50 in the assay with human CCR8 [6] and in the assay with human CCR8 [7] were 0.273 µg/mL and 0.0959 µg/mL, respectively.
